# Results taken from FireProtDB (doi:10.1002/pro.5560051112).
# Values joined by “and” are separate entries in the source; they are usually repeats but may differ in a detail not shown here. Identical values can stand only once.
# B1: Beta-glucanase wild type, P23904 (protein)
# chain: MKKKSCFTLVTTFAFSLIFSVSALAGSVFWEPLSYFNRSTWEKADGYSNGGVFNCTWRANNVNFTNDGKLKLGLTSSAYNKFDCAEYRSTNIYGYGLYEVSMKPAKNTGIVSSFFTYTGPAHGTQWDEIDIEFLGKDTTKVQFNYYTNGVGGHEKVISLGFDASKGFHTYAFDWQPGYIKWYVDGVLKHTATANIPSTPGKIMMNLWNGTGVDDWLGSYNGANPLYAEYDWVKYTSN
# B2: Beta-glucanase wild type, P07980 (protein)
# chain: MKRVLLILVTGLFMSLCGITSSVSAQTGGSFFEPFNSYNSGLWQKADGYSNGDMFNCTWRANNVSMTSLGEMRLALTSPSYNKFDCGENRSVQTYGYGLYEVRMKPAKNTGIVSSFFTYTGPTEGTPWDEIDIEFLGKDTTKVQFNYYTNGAGNHEKFADLGFDAANAYHTYAFDWQPNSIKWYVDGQLKHTATTQIPAAPGKIMMNLWNGTGVDDWLGSYNGVNPIYAHYDWMRYRKK
# Details: pH 6, Thermal, DSC, Sodium cacodylate 2 mM, reversible: yes(>80%), whole UniProt chain shown; for unfolding free energy: 25 °C
# [1] = Paenibacillus macerans, CaCl2 1 mM
Protein,unfolding free energy [1] [kcal/mol],unfolding free energy (Paenibacillus macerans) [kcal/mol],Tm [1],unfolding enthalpy (calorimetric) [1],Tm (Paenibacillus macerans) [°C],unfolding enthalpy (calorimetric) (Paenibacillus macerans) [kcal/mol],"Tm (Bacillus amyloliquefaciens, CaCl2 1 mM) [°C]",Tm (Bacillus amyloliquefaciens) [°C]
B1,9,6.1,50.8 °C and 50.5 °C,139 kcal/mol and 156 kcal/mol,44.5,119,,
B2,,,,,,,58.9,48.7
